Data: patent US8304236B2, “Modified biotin-binding protein” (Japan Tobacco Inc., priority 2008, dated 2012)
Several values for one entry are separate records, joined by “and”; a condition that tells them apart may be missing. Equal entries are not always repeated.

Columns and labels:
[1] = Isoelectric focusing electrophoresis (pI observed); type: physicochemical; details: pH 3 to 10 gel
Experimental: The isoelectric point of each low-pI TM2 was measured by isoelectric focusing electrophoresis using an XCell SureLock Mini-Cell (Invitrogen). In accordance with the instruction, each low-pI TM2 (500 ng) and an IEF sample buffer (pH 3 to 10 (2×), Invitrogen) were mixed and were added to a polyacrylamide gel (pH 3 to 10, IEF Gel, Invitrogen) at a pH ranging from 3 to 10, followed by electrophoresis at a variable voltage of 100 V for 1 hour, 200 V for 1 hour, and 500 V for 45 minutes in this order.
After the electrophoresis, the gel was shaken in a blotting buffer (0.7% acetic acid) for 10 minutes and then was transferred onto a PVDF membrane at 10 V for 1 hour using an XCell ll Blot Module (Invitrogen). The PVDF membrane was subjected to reaction with anti-TM2 rabbit antibody (PCT/W2006/326260) serving as a primary antibody and with alkaline phosphate-labeled anti-rabbit IgG antibody (BIO-RAD) serving as a secondary antibody, followed by detection of bands with Alkaline Phosphatase Substrate Kit II
The isoelectric point of the high-affinity TM2 was measured by isoelectric focusing electrophoresis using an XCell SureLock Mini-Cell (Invitrogen). […] The electric point of TM2 D40N having replacement of the […] amino acid was higher than that of the wild type TM2 also in the isoelectric focusing electrophoresis.
The isoelectric point of HALU TM2 was measured by isoelectric focusing electrophoresis using an XCell SureLock Mini-Cell (Invitrogen). In accordance with the instruction, bands of each HALU TM2 (4 μg) were detected by CBB staining. […] The observed isoelectric point of TM2 D40N was 9.7, and was reduced to 8.9 after introduction of mutation of R104E and was reduced to 7.3 to 7.5 after further introduction of mutation of K141E.

Salmon sperm DNA = test: Non-specific binding to DNA (membrane-adsorbed DNA, biotinylated HRP, ECL); details: salmon sperm DNA 10 μg to 1 μg on membrane, 25 μg/mL protein
Experimental: Salmon sperm DNA diluted stepwise from 10 μg to 1 μg with 2×SSC buffer was denatured with an alkali and was adsorbed to Hybond N+membrane (Amersham Biosciences) using Bio-Dot SF (BIO-RAD). After blocking the membrane with 5×Denhardt's solution (0.1% BSA, 0.1% ficoll, 0.1% polyvinylpyrrolidone), the membrane was immersed in 25 μg/mL of low-pI TM2 or the wild-type TM2 at room temperature for 90 minutes. Then, the membrane was washed with a TUBS buffer (TBS buffer containing 0.05% Tween 20) at room temperature for 5 minutes three times. The membrane was blocked with a TBS buffer containing 3% skimmed milk and 0.1% Tween 20 for 1 hour. The membrane was subjected to a reaction with biotinylated horseradise peroxidase (Vector) diluted 5000 times with a TBS buffer containing 3% skimmed milk and 0.1% Tween 20 at room temperature for 1 hour. The membrane was washed with a TBS buffer containing 0.1% Tween 20 again and was then shaken in a solution that is a mixture of reagent 1 and reagent 2 of ECL (Amasham) in the same volumes, followed by detection of the luminol reaction with Las-3000 (FUJIFILM).
The non-specific binding of HALU TM2 to DNA was analyzed by the process in paragraph 1-11) of Example 1.

[2] = Biotin-binding test (Biacore 3000, biotin-LC-BSA immobilized)
Experimental: High-purity BSA (Sigma, 2 mg) and NHS-LC-biotin (Pierce, 1 mg) were dissolved in 50 mM sodium borate (pH 8.0, 1 mL) and were incubated at 4° C. for 2 hours. The solution was put into a dialysis tube (MWCO 6-8,000) and was dialyzed with 50 mM sodium carbonate (pH 6.7) at 4° C. overnight. The resulting biotin-LC-BSA conjugate (MW: 67 kDa, 30 μM) was used as a ligand for a Biacore (registered trademark) biosensor.
Biotin-LC-BSA and BSA serving as a negative control were immobilized on CM5 sensor chips by amine coupling method. The amount for immobilization was adjusted to about 200 RU. The chips to which BSA was immobilized were disposed in flow cells 1 and 3, while the chips to which biotin-LC-BSA was immobilized were disposed in flow cells 2 and 4.
Accordingly, seven step measurement (3.125, 6.25, […], 25, 50, 100, and 200 nM) was conducted from the lowest concentration, without recycling steps. The data of BSA as reference was deducted from the data of BSA-LC-biotin. The measurement was performed at 25° C. The resulting sensorgrams were subjected to reaction kinetics analysis using analysis software BIAevaluation ver. 4.1 with a 1:1 binding model to calculate the binding rate constant (ka) and the dissociation rate constant (kd). The dissociation constant (KD) was determined from kd/ka. In the case where no recycling step is employed, the Rmax (maximum amount of binding analyte) decreases at each measurement. Accordingly, in the analysis, the Rmax was calculated by conducting local fitting for each concentration, and only the data of analyte concentrations that were approximated to the 1:1 binding model was employed.
TM2 and HALU TM2 used as analytes were prepared by purification with 2-iminobiotin agarose in accordance with a common method and dialysis with 20MM KPi (pH 7) overnight. The analytes were each adjusted to about 50 μg/mL in 10 mM acetate buffer (pH 5, Biacore).
The immobilization of the ligand and measurement and analysis of specific interaction with the analytes were conducted as in paragraph 2-7-2).

human serum protein = test: Non-specific adsorption of serum protein to HALU TM2-immobilized magnetic beads; type: binding; details: human serum diluted 800 times, anti-human IgG detection
Experimental: In this Example, non-specific adsorption of serum protein to HALU TM2-immobilized magnetic beads was investigated.
TM2 D40NR104E and TM2 D40NR104EK141E were bonded covalently to magnetic beads (Dynabeads M-270 Carboxylic Acid, Dynal) by the process described in paragraph 1-9) of Example 1, and the amount of human serum protein adsorbed to the beads was measured. The amount of each HALU TM2 immobilized to the magnetic beads was adjusted to 10 μg/100 μL beads. Human serum (CHEMICON) was diluted 800 times with a PBS buffer, and the HALU TM2-immobilized magnetic beads (50 μL) to which a certain amount of protein was immobilized were added to the diluted human serum, followed by mixing by turning the tube containing the beads upside down at room temperature for 15 minutes. The magnetic beads were washed with a PBS buffer containing 0.1% Tween 20 (PBST, 500 μL) four times and were then subjected to antigen-antibody reaction at room temperature for 15 minutes with HRP-labeled anti-human IgG mouse antibody (100 μL) diluted 5000 times with PBST containing 0.5% BSA. Subsequently, the beads were washed with PBST (500 μL) five times, followed by color development with 1-Step Ultra TMB-ELISA (100 μL). After termination of the color development with 2M sulfuric acid (100 μL), the magnetic beads were collected with a magnet. The absorbance at 450 nm of the supernatant was measured with an Infinite 200 microplate reader.

Molecule	pI observed [1]	pI observed ([1]; listed as TM2WT)	pI observed ([1]; listed as wild type TM2)	Non-specific binding of DNA (Salmon sperm DNA)	Non-specific binding of DNA (Salmon sperm DNA; listed as wild type TM2)	dissociation from biotin-LC-BSA ([2]; dissociation monitored for 60 minutes)	Non-specific binding to serum protein (A450) (human serum protein)	ka ([2]; Biotin-BSA (22.4 Å))	kd ([2]; Biotin-BSA (22.4 Å), values in parentheses)	Non-specific binding to serum protein (A450) (human serum protein; listed as D40NR104EK141E)
TM2: wild type tamavidin 2, biotin-binding protein from Pleurotus cornucopiae, amino acid sequence SEQ ID NO: 2 (protein, listed as Pleurotus cornucopiae) MSDVQSSLTGTWYNELNSKMELTANKDGTLTGKYLSKVGDVYVPYPLSGRYNLQPPAGQGVALGWAVSWENSKIHSATTWSGQFFSESSPVILTQWLLSSSTARGDVWESTLVGNDSFTKTAPTEQQIAHAQLHCRAPRLK	8.5 to 8.8	8.5 to 8.8	8.2 to 8.6 and 8.5 to 8.8	weakly bound	weakly bound	not dissociated	0.67			
TM2 D40NR104EK141E: TM2 mutant having mutation of D40N and R104EK141E; SEQ ID NO: 24 (protein, Synthetic TM2 D40NR104EK141E) MSDVQSSLTGTWYNELNSKMELTANKDGTLTGKYLSKVGNVYVPYPLSGRYNLQPPAGQGVALGWAVSWENSKIHSATTWSGQFFSESSPVILTQWLLSSSTAEGDVWESTLVGNDSFTKTAPTEQQIAHAQLHCRAPRLE	7.3 to 7.5			lower than the detection limit			low	1.5 × 10^6	(1.4 × 10^−8)	0.45
